In US20200140566A1 (CLEVELAND CLINIC FOUNDATION, published 2020):
Positions count from the first letter of the chain named. Several values for one entry are separate records, joined by “and”; a condition that tells them apart may be missing. Equal entries are not always repeated.

B1: Humanized IgG6 (from Fab6) (antibody, V domains shown)
VH: QVQLQESGPGLVKPSETLSLTCTVSGFSLSRYSVHWIRQPPGKGLEWIGLIWGGGFTDYNSALKSRVTISKDNSKNQVSLKLSSVTAADTAVYYCAREGVAYWGQGTLVTVSS
VL: DVVMTQSPLSLPVTLGQPASISCKSSQSLLNSDGRTYLNWFQQRPGQSPRRLIYLVSKLDSGVPDRFSGSGSGTDFTLKISRVEAEDVGVYYCWQGTHFPFTFGPGTKVDIKR
notes: Human IgG1 / kappa
B2: Humanized IgG4 (from Fab4) (antibody, V domains shown)
VH: B1 VH with L29I
VL: B1 VL
notes: VH4-hIgG1CH and VL-hIgKCL (human IgG1 / kappa; 'IgG4' is the clone number, not the isotype)
B3: Humanized IgG2 (from Fab2) (antibody, V domains shown)
VH: B1 VH with I37V, I48L, V67L
VL: B1 VL
notes: VH2-hIgG1CH and VL-hIgKCL (human IgG1 / kappa)
B4: Fab2 (Fab, V domains shown)
VH: B1 VH with I37V, I48L, V67L
VL: DVVMTQSPLSLPVTLGQPASISCKSSQSLLNSDGRTYLNWFQQRPGQSPRRLIYLVSKLDSGVPDRFSGSGSGTDFTLKISRVEAEDVGVYYCWQGTHFPFTFGPGTKVDIK
notes: Tested as Fab-SASA secreted into culture medium (pFASEBA vector); also called back-mutation 2; Fab2 clone from CDR grafting
B5: Fab7 (Fab, V domains shown)
VH: B1 VH with F27G, L29I, I37V, I48L, V67L, K71V, N73T, V78F
VL: B4 VL
notes: Tested as Fab-SASA secreted into culture medium; also called back-mutation 7
B6: Fab4 (Fab, V domains shown)
VH: B1 VH with L29I
VL: B4 VL
notes: Tested as Fab-SASA secreted into culture medium; also called back-mutation 4
B7: Fab6 (Fab, V domains shown)
VH: B1 VH
VL: B4 VL
notes: Tested as Fab-SASA secreted into culture medium; also called back-mutation 6
B8: Fab5 (Fab, V domains shown)
VH: B1 VH with F27G, I37V, I48L, V67L, K71V, N73T, V78F
VL: B4 VL
notes: Tested as Fab-SASA secreted into culture medium; also called Fab5 R; back-mutation 5

These binders were tested against T1, CD6 on Jurkat cells (human, UniProt P30203 18-668) (assay: flow cytometry on Jurkat cells, antibody at 2000 pM).
T1 construct: whole, on cells; the target is inferred from the antibodies' specificity
T1 sequence (looked up): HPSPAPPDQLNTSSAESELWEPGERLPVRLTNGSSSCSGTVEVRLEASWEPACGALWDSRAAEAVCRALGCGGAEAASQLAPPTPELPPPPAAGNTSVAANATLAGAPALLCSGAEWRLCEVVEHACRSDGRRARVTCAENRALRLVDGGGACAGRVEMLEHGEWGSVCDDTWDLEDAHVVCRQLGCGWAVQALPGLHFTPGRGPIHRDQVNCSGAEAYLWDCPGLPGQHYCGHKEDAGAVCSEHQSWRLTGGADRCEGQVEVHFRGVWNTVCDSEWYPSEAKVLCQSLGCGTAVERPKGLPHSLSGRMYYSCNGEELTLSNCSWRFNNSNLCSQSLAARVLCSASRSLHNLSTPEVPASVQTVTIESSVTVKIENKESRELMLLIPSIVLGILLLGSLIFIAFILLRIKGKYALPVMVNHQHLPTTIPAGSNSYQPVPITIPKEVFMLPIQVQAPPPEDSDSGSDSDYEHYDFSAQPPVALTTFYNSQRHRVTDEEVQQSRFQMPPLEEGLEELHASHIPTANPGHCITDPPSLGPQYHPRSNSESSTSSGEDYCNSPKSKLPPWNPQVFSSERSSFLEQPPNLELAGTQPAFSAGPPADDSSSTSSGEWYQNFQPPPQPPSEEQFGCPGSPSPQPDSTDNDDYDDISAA
Description: (§1) Flow cytometric analysis was performed using the purified antibodies. Jurkat cells were grown to 70-80% confluence and harvested by centrifuge. About 4×10⁵ cells per well were washed with PBS twice. 200 μl of the culture supernatant was added to the cells and incubated at room temperature for 1 hour. After washing with PBS, antibody was added to the cells for the detection of bound humanized IgG. After 30 minutes incubation, the cells were washed twice with PBS and resuspended in PBS. Cells were analyzed for IgG binding by using FACS Calibur (BD Bioscience, San Jose, Calif.) and Flowjo software. The IC₅₀ was analyzed by GraphPad Prism.
(§2) The FACS binding assay was also performed for validation of the Jurkat cell/humanized antibody interaction. Three humanized antibodies show almost equal Jurkat cell binding activity as parent antibody.

Binder | MFI
B1 | 44.1
B2 | 44.4
B3 | 45

The binders below were run against T1, CD6 on Jurkat cells (assay: flow cytometry on Jurkat cells, antibody at 10000 pM).
Description: as §1, §2

Binder | MFI
B1 | 45.2
B2 | 46.7
B3 | 42.7

These binders were tested against T1, CD6 on Jurkat cells (assay: flow cytometry on Jurkat cells, antibody at 16 pM).
Description: as §1, §2

Binder | MFI
B1 | 7.9
B2 | 7.65
B3 | 6.8

The binders below were run against T1, CD6 on Jurkat cells (assay: flow cytometry titration of direct binding on Jurkat cells (the filing calls the midpoint IC50), GraphPad Prism).
Description: as §1, §2

Binder | EC50 [pM]
B1 | 197
B2 | 185
B3 | 275

Each binder was assayed against T2, rhCD6-Fc (human, UniProt P30203 25-398, limits assumed) (assay: SPR (BIAcore T200, 25 C), rhCD6-Fc immobilised on CM5, IgG injected 0.11-27 nM, 1:1 fit; column head misprinted 'Kd (1/Ms)').
T2 construct: also called rhCD6-Fc chimera; antigen rhCD6-Fc; not shown: Fc part
T2 sequence (looked up): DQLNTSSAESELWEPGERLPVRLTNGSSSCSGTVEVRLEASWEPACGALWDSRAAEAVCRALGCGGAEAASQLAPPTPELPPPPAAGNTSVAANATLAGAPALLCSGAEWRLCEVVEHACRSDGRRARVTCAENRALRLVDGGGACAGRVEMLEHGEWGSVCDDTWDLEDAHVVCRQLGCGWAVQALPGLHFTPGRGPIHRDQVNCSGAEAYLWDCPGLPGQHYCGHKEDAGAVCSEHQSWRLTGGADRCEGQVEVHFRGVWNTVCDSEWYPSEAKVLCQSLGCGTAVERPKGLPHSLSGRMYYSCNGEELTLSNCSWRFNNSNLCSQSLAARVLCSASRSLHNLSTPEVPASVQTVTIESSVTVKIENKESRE
Description: (§3) IgG antibodies were injected through flow cells at a flow rate of 30 μl/min with the concentration ranging from 0.11-27 nM (three-fold serial dilution). Association time was 700 s followed by 3600 s dissociation. At the end of each cycle, sensor surface was regenerated with 10 mM Glycine-HCl, pH 2.0 (100 μl/min, 12 s for 3 times). Responses of reference flow cell and buffer-only injection were double-subtracted from rhCD6-Fcflow cell during each antigen injection cycle. The data of dissociation (kd) and association (ka) rate constants were obtained by fitting binding data to 1:1 binding model using Biacore T200 evaluation software. The apparent equilibrium dissociation constants (KD) were calculated from the ratio of kd over ka.
(§4) Affinity analysis of antigen-antibody interaction. Binding data of each antibody was processed and fitted to 1:1 binding model using Biacore T200 evaluation software. All experiment data could be perfectly fitted to the model (FIG. 14).

Binder | koff [s⁻¹] | kon [M⁻¹ s⁻¹]
B1 | 2.1e-05 | 650000
B2 | 1.3e-05 | 350000
B3 | 1.3e-05 | 320000

These binders were tested against T1, CD6 on Jurkat cells (assay: flow cytometry on Jurkat cells, antibody at 3.2 pM).
Description: as §1, §2

Binder | MFI
B1 | 6.68
B2 | 6.45
B3 | 6.18

The binders below were run against T1, CD6 on Jurkat cells (assay: flow cytometry on Jurkat cells, antibody at 80 pM).
Description: as §1, §2

Binder | MFI
B1 | 14.8
B2 | 15
B3 | 10.9

What follows are binders tested against T2, rhCD6-Fc (assay: SPR (BIAcore T200), Fab-SASA from culture medium captured on immobilised BSA, rhCD6-Fc injected, 1:1 fit of off-rate).
Description: BSA was immobilized onto the sensor chip using amine coupling method. The selected Fab-SASA clones secreted to the culture medium were injected and captured by BSA via SASA (capture phase). After equilibration, antigen rhCD6-Fc was injected for 240 seconds (association phase) followed by the injection of running buffer for 720 seconds (dissociation phase). The surface was regenerated before the injection of another three Fab-SASA clones. The process was repeated until all antibodies were analyzed. Responses of reference flow cell were subtracted from those of Fab-SASA flow cells during each cycle. The binding curves of Fab-SASA clones were aligned at the start of association and normalized at 20 seconds after the stop of antigen injection using the BIAcore T200 evaluation software in order to display a more visualized comparison of antibodies. The off-rates of Fab-SASA clones were obtained from fitting the experimental data locally to 1:1 binding model. The antibodies were ranked by their dissociation rate constants Single cycle kinetics measurement was performed to verify the affinity ranking result. The selected Fab-SASA clones secreted to the culture medium were injected and captured by BSA via SASA (capture phase). After equilibration, a series of concentrations of antigen rhCD6-Fc (1, 3, 9, 27 and 81 nM) were injected for 500 seconds (association phase) followed by the injection of running buffer for 3000 seconds (dissociation phase). The surface was regenerated before another injection of Fab-SASA clones. Responses of reference flow cell and buffer-only injection were double-subtracted from those of Fab-SASA flow cells during each antigen injection cycle. The binding data were fitted to 1:1 binding model using the BIAcore T200 evaluation software.
Five back-mutation clones were constructed based on sequence of Fab2 and homology modeling. Each of DNA sequence encoding the five Fab fragments was inserted into pFASEBA vector for screening of the lead antibodies. The five clones along with Fab2 were screened against rhCD6-Fc for binding test and subsequent off-rate analysis by the BIAcore T200. Three clones were selected for IgG production and characterization due to the low dissociation rate using the BIAcore T200 evaluation software (Table 3).

Binder | koff
B4 | 2.1e-05 s⁻¹
B5 | 0.00089 s⁻¹
B6 | 1.9e-05 s⁻¹
B7 | 3.1e-05 s⁻¹
B8 | 0.00053 s⁻¹ and 0.00056 s⁻¹

Each binder was assayed against T1, CD6 on Jurkat cells (assay: flow cytometry on Jurkat cells, antibody at 0 pM (background)).
Description: as §1, §2

Binder | MFI
B1 | 5.45
B2 | 5.45
B3 | 5.45

Each binder was assayed against T1, CD6 on Jurkat cells (assay: flow cytometry on Jurkat cells, antibody at 400 pM).
Description: as §1, §2

Binder | MFI
B1 | 35.3
B2 | 37
B3 | 31

What follows are binders tested against T2, rhCD6-Fc (assay: SPR (BIAcore T200, 25 C), rhCD6-Fc immobilised on CM5, IgG injected, apparent KD = kd/ka).
Description: as §3, §4

Binder | Kd [pM]
B1 | 32
B2 | 38
B3 | 42
